Data: patent publication US20250011420A1 (MEDICOVESTOR, published 2025)

Target: T1, recombinant 6His-Sp17 protein (UniProt Q15506 1-151)
T1 sequence: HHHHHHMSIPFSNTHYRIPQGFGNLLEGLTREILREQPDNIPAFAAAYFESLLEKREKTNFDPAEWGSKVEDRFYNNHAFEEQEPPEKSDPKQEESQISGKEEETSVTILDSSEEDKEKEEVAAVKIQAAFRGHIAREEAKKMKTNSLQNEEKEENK
Assay: SPR (Biacore T200), 6His-Sp17 at 6.25-300 nM
Excerpt: The lines correspond, from highest to lowest, to fitted cycles for 300 nanomolar, 100 nanomolar, 50 nanomolar, 25 nanomolar, 12.5 nanomolar, and 6.25 nanomolar concentrations of 6His-Sp17.
The nucleotide sequences encoding the VH and VL regions of Example 1 were cloned into a mouse IgG2a heavy chain gene and a mouse kappa light chain gene, respectively, and expressed in CHO—S cells to produce a mouse-human chimeric antibody, which was named chAB2. Successful generation of the antibody was confirmed by SDS-PAGE and western blotting using anti-mouse heavy and light chain antibodies and recombinant Sp17 protein (FIGS. 2 & 3). The chAB2 antibody was reactive to mouse surface Sp17 protein expressed on the mouse ovarian cancer cell line ID8 (FIG. 4).

- Kd: 2.07 nM
- koff: 0.00013 s⁻¹
- kon: 62600 M⁻¹ s⁻¹
B1: mouse-human chimeric anti-Sp17 IgG2a/kappa monoclonal antibody chAB2 (antibody, V domains shown)
VH: QVQLQQSGAEVKKPGSSVKVSCKASGGTFSSYAISWVRQAPGQGLEWMGRIIPILGIANYAQKFQGRVTITADKSTSTAYMELSSLRSEDTAVYYCARPSEEVVAAYGAFDIWGQGTTVTVSS
VL: EIVLTQSPLSLPVRPGEPASISCRASQSLLRSDGFNYLDWYLQKPGQSPQLLVYLGSNRASGVPDRFSGSGSGTDFTLKISRVEAEDVGVYYCMQAVQTPYIFGQGTKLEIK
notes: also called chimeric antibody; anti-Sp17 antibody chAB2
